Patent publication US20180256731A1, “NOVEL INSULIN ANALOG AND USE THEREOF” (HANMI PHARM. CO., LTD, priority 2013, published 2018)
pKd: −log10 of the molar value.

What was measured:
Insulin receptor [1] = assay: SPR (BIACORE 3000), receptor on CM5 chip; Test 1
Insulin receptor [2] = assay: SPR (BIACORE 3000), receptor on CM5 chip; Test 2
Insulin receptor [3] = assay: SPR (BIACORE 3000), receptor on CM5 chip; Test 3
Insulin receptor [4] = assay: SPR (BIACORE 3000), receptor on CM5 chip; Test 4
Insulin receptor [5] = assay: SPR (BIACORE 3000), receptor on CM5 chip; Test 5

Question: For Native human insulin (ligand), which koff (Insulin receptor [1]) is on record?
Answer: The koff was 0.00747 s⁻¹.

Question: And the kon (Insulin receptor [1])?
Answer: The kon was 221000 M⁻¹ s⁻¹.

Question: What about the koff (Insulin receptor [2]) of the same substance?
Answer: Its koff is 0.0101 s⁻¹.

Question: And the kon (Insulin receptor [2])?
Answer: The kon was 229000 M⁻¹ s⁻¹.

Question: And the pKd (Insulin receptor [3])?
Answer: The pKd was 7.20.

Question: And the koff (Insulin receptor [3])?
Answer: The koff was 0.0107 s⁻¹.

Question: And the kon (Insulin receptor [3])?
Answer: Its kon is 176000 M⁻¹ s⁻¹.

Question: And the koff (Insulin receptor [4])?
Answer: The koff was 0.0124 s⁻¹.

Question: And the kon (Insulin receptor [4])?
Answer: Its kon is 290000 M⁻¹ s⁻¹.

Question: What about the koff (Insulin receptor [5]) of the same substance?
Answer: Its koff is 0.0097 s⁻¹.

Question: And the kon (Insulin receptor [5])?
Answer: Its kon is 200000 M⁻¹ s⁻¹.
